Assay results: patent publication EP1645881A1

Key:
[1] = target: JunΔdimΔDNA-mRFP1 (human) (UniProt P05412); assay: dual-colour FCCS in living HeLa cells; references: 13% for no interaction, 45% for 100% interaction
[2] = target: monomeric Red Fluorescent Protein 1 (mRFP1); assay: dual-colour FCCS in living HeLa cells, proteins expressed separately from pIRES-EGFP-mRFP1 (negative control, 0% interaction)

Chain of UniProt P05412 (P05412 other isoform, or with tags, fused parts or gaps mutant): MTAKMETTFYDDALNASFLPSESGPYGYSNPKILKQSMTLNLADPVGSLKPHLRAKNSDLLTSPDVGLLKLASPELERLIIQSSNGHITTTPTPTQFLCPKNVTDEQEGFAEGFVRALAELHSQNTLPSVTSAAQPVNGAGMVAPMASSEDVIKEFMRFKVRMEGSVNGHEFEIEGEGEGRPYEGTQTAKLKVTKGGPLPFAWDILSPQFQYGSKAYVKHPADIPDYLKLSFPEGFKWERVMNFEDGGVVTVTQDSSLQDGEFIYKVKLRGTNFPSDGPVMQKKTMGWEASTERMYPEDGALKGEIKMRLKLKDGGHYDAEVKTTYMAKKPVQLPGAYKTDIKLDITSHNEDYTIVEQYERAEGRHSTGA

| Substance | cross-correlation amplitude [1] [%] | cross-correlation amplitude (percent of the autocorrelation signal) [2] [%] |
| --- | --- | --- |
| FosΔdimΔDNA-EGFP (from UniProt P01100 1-138) | 18 |  |
| Enhanced Green Fluorescent Protein (EGFP) |  | 13 |
